Experimental data as given in patent US20250283030A1, “Biosynthesis of Phenylpropanoid Compounds” (BGENE GENETICS, priority 2021, published 2025).
Changes are numbered by the printed parent chain. Numbers in names are those of the source. Entries after “also recorded” stand apart in the source; their conditions may differ.

B1: P160L/Q164A: Pseudomonas putida AroF-I DAHP synthase with P160L/Q164A double mutation, SEQ ID NO:3 (protein, listed as Pseudomonas putida)
chain: LAAGTRDLTSNTMADLPIDDLNVASNETLITPDQLKKEIPLSAKALQTVTAGREVVRNILDGKDHRLFVVVGPCSIHDIKAAHEYAERLKVLAEEVSDTLYLVMRVYFEKPRTTVGWKGLINDPYLDDSFKIQDGLHIGRKLLLDLAEMGLPTATEALDLISPAYLQDLISWSAIGARTTESQTHREMASGLSSAVGFKNGTDGGLTVAINALQSVSKPHRFLGINQEGGVSIVTTKGNPYGHVVLRGGNGKPNYDSVSVALCEQDLAKAKIKANIMVDCSHANSNKDPALQPLVMENVANQILEGNQSIIGLMVESHLNWGCQSIPKNLDDLQYGVSITDACIDWSATEKTLRSMHAKLKDVLPQRKRGLAAGTRDLTSNTMADLPIDDLNVASNETLITPDQLKKEIPLSAKALQTVTAGREVVRNILDGKDHRLFVVVGPCSIHDIKAAHEYAERLKVLAEEVSDTLYLVMRVYFEKPRTTVGWKGLINDPYLDDSFKIQDGLHIGRKLLLDLAEMGLPTATEALDLISPAYLQDLISWSAIGARTTESQTHREMASGLSSAVGFKNGTDGGLTVAINALQSVSKPHRFLGINQEGGVSIVTTKGNPYGHVVLRGGNGKPNYDSVSVALCEQDLAKAKIKANIMVDCSHANSNKDPALQPLVMENVANQILEGNQSIIGLMVESHLNWGCQSIPKNLDDLQYGVSITDACIDWSATEKTLRSMHAKLKDVLPQRKRG
B2: P160L: Pseudomonas putida AroF-I DAHP synthase with P160L mutation, SEQ ID NO:2 (protein, listed as Pseudomonas putida)
chain: LAAGTRDLTSNTMADLPIDDLNVASNETLITPDQLKKEIPLSAKALQTVTAGREVVRNILDGKDHRLFVVVGPCSIHDIKAAHEYAERLKVLAEEVSDTLYLVMRVYFEKPRTTVGWKGLINDPYLDDSFKIQDGLHIGRKLLLDLAEMGLPTATEALDLISPQYLQDLISWSAIGARTTESQTHREMASGLSSAVGFKNGTDGGLTVAINALQSVSKPHRFLGINQEGGVSIVTTKGNPYGHVVLRGGNGKPNYDSVSVALCEQDLAKAKIKANIMVDCSHANSNKDPALQPLVMENVANQILEGNQSIIGLMVESHLNWGCQSIPKNLDDLQYGVSITDACIDWSATEKTLRSMHAKLKDVLPQRKRG
B3: P160L/S193A: Pseudomonas putida AroF-I DAHP synthase with P160L/S193A double mutation, SEQ ID NO:4 (protein, listed as Pseudomonas putida)
chain: B2 chain with S193A
B4: P160L/G191K: Pseudomonas putida AroF-I DAHP synthase with P160L/G191K double mutation (protein)
chain: B2 chain with G191K

Assays:
[1] = test system: wild-type Pseudomonas putida AroF-I enzyme; assay: Enzymatic activity assay (PEP consumption by HPLC), inhibition by tyrosine; type: biochemical; settings: 1 mM tyrosine, 300 μM PEP, 300 μM E4P, 60 minutes at 30° C., FIG. 1
Experimental: The activity of the enzymes is measured by monitoring the disappearance of the substrate using HPLC (High Pressure Liquid Chromatography) detection. The reaction is performed in a final volume of 200 μl with 40 mM of phosphate buffer, pH 7, 300 μM of phospho(enol)pyruvate (PEP), 20 μg of purified enzyme, 1 mM of tyrosine (or another aromatic amino acid) or 3 μM of HCl, the volume being completed with ultrapure water. After pre-incubation for 2 minutes at 30° C., the reaction is initiated by adding 300 μM of erythrose-4-phosphate […]) and the reaction mixture is incubated for 60 minutes at 30° C. Finally, the mixture is heated for 5 minutes at 80° C. in order to stop the reaction and precipitate the proteins. The enzymatic activity assays are firstly centrifuged for 10 minutes at 15 000×g in order to precipitate the proteins. The supernatant obtained is filtered over a 0.22 μm membrane before HPLC analysis. The method used is described below: • System: Agilent 1100 (Agilent) • Column: Luna OMEGA polar C18 (Phenomenex) • Mobile phase: 1 mM phosphoric acid • Flow rate: 0.3 ml/min • UV detection: 220 nm • Injection: 5 μl • Duration of analysis: 15 minutes In order to quantify the amount of PEP present in the samples, a series of standards is analyzed, with PEP concentrations from 0.1 mM to 1 mM.

AroF-I enzyme = assay: Enzymatic activity assay (PEP consumption by HPLC) of AroF-I mutants with or without tyrosine; type: biochemical, Pseudomonas putida; settings: for resistance of the enzyme to inhibition by tyrosine: 1 mM tyrosine, PEP consumed compared to AroF-I WT, FIG. 2-4; for enzymatic activity (PEP consumed): in the presence or absence of tyrosine, FIG. 3
Experimental: In order to express and purify the AroF-I enzyme and the mutants derived therefrom, the corresponding genes are cloned in a pET28_b(+) plasmid with a His tag grafted to the N-terminal part of the protein (upstream of the gene's ATG).
The activity of the enzymes is measured by monitoring the disappearance of the substrate using HPLC (High Pressure Liquid Chromatography) detection.
The reaction is performed in a final volume of 200 μl with 40 mM of phosphate buffer, pH 7, 300 μM of phospho(enol)pyruvate (PEP), 20 μg of purified enzyme, 1 mM of tyrosine (or another aromatic amino acid) or 3 μM of HCl, the volume being completed with ultrapure water.
After pre-incubation for 2 minutes at 30° C., the reaction is initiated by adding 300 μM of erythrose-4-phosphate (E4P) and the reaction mixture is incubated for 60 minutes at 30° C.
Finally, the mixture is heated for 5 minutes at 80° C. in order to stop the reaction and precipitate the proteins.
The enzymatic activity assays are firstly centrifuged for 10 minutes at 15 000×g in order to precipitate the proteins. The supernatant obtained is filtered over a 0.22 μm membrane before HPLC analysis.
The method used is described below: • System: Agilent 1100 (Agilent) • Column: Luna OMEGA polar C18 (Phenomenex) • Mobile phase: 1 mM phosphoric acid • Flow rate: 0.3 ml/min • UV detection: 220 nm • Injection: 5 μl • Duration of analysis: 15 minutes
In order to quantify the amount of PEP present in the samples, a series of standards is analyzed, with PEP concentrations from 0.1 mM to 1 mM.

Row | Molecule | activity of the wild-type AroF-I enzyme in the presence of tyrosine [1] | resistance of the enzyme to inhibition by tyrosine (AroF-I enzyme) | enzymatic activity (PEP consumed) (AroF-I enzyme)
1 | N[C@@H](Cc1ccc(O)cc1)C(=O)O [tyrosine] | inhibited | – | –
2 | B1 | – | slightly improved | –
3 | B2 | – | partially resistant | –
4 | B3 | – | virtually completely resistant; also recorded: synergistic effect | restored virtually all the enzymatic activity
5 | B4 | – | – | no longer has any activity
